Measurements published in patent US20140348844A1 (UCB, published 2014).
Where “and” joins values, the source holds several entries; their conditions need not be identical. Equal values may be shown once.

Key:
toxin B (VPI 10463) [1] = molecular target: T1, toxin B (VPI 10463) (Clostridium difficile strain VPI 10463, UniProt P18177 2-2366); experiment: cell-based or functional assay
toxin B (VPI 10463) [2] = molecular target: T1, toxin B (VPI 10463); experiment: cell-based or functional assay; remark: listed apart in the source
toxin B (VPI 10463) [3] = molecular target: T1, toxin B (VPI 10463); experiment: cell-based or functional assay; remark: listed apart in the source
TcdB binding (TcdB1234) [4] = molecular target: T2, TcdB binding (TcdB1234) (Clostridium difficile ribotype 027, UniProt P18177 1833-2366); experiment: SPR BIAcore 3000, Mab captured on anti-human Fc, TcdB1234 in solution, purified Mab 3 point titration
T2 construct: also called CROPs1,2,3,4 of Toxin B

TcdA CROPS456 (TcdA456) = TcdA CROPS456 (TcdA456) (Clostridium difficile ribotype 027, UniProt P16154 2205-2608)
[5] = molecular target: TcdA purified from strain VPI10463 (Clostridium difficile strain VPI10463, UniProt P16154 1-2710); experiment: cell-based or functional assay
TcdA from ribotype 027 = molecular target: T3, TcdA from ribotype 027 (Clostridium difficile ribotype 027, UniProt P16154 1-2710); experiment: estimated from SPR on TcdA sub-domains
T3 construct: also called TcdA ribotype 027; TcdA whole toxin

TcdB binding (TcdB1234) [6] = molecular target: T2, TcdB binding (TcdB1234); experiment: SPR Biacore 3000, biotinylated TcdB1234 on streptavidin chip, antibody at 500 nM, saturating response
TcdA ribotype 078 = TcdA ribotype 078 (Clostridium difficile ribotype 078); experiment: cell-based or functional assay

B1: CA164_1134.g5 (antibody, V domains shown)
VH: EVQLQESGPGLVKPSETLSLTCTVSGFSLNSYTITWVRQPPGKGLEWIAAISGGGSTYFNSALKSRVTISRDTSKSQVSLKLSSVTAADTAVYYCTRPRWYPRSYFDYWGRGTLVTVS
VL: DVQLTQSPSFLSASVGDRVTITCKASKSISNHLAWYQEKPGKANKLLIHSGSTLQPGTPSRFSGSGSGTEFTLTISSLQPEDFATYYCQQYDEYPYTFGQGTRLEIK
notes: also called CA1134; CA164_01134.g5
With B1 the “EC50(ng/ml), TcdB neutralisation on Caco-2 cells, constant toxin concentration” value (toxin B (VPI 10463) [1]) was over 1000 ng/mL, the “IC50 (ng/ml), TcdB neutralisation on Caco-2 cells, toxin at LD80” value (“IC50 (ng/ml), TcdB neutralisation” for short) (toxin B (VPI 10463) [2]) was 8 ng/mL and the “Maximum neutralisation, TcdB LD75” value (toxin B (VPI 10463) [3]) was 45%. The “Maximum neutralisation, TcdB LD86” value (toxin B (VPI 10463) [3]) was 25%, the “Maximum neutralisation, TcdB LD90” value (toxin B (VPI 10463) [3]) was 15% and the Kd (TcdB binding (TcdB1234) [4]) was 0.0481 nM and 0.048 nM. It also gave a koff (TcdB binding (TcdB1234) [4]) of 2.45e-05 s⁻¹ and a kon (TcdB binding (TcdB1234) [4]) of 509000 M⁻¹ s⁻¹.

B2: CA164_1099.g2 (antibody, V domains shown)
VH: EVQLQESGPGLVKPSETLSLTCTVSGFSLQSYTISWVRQPPGKGLEWIAAISGGGSTYYNLPLKSRVTISRDTSKSQVSLKLSSVTAADTAVYYCTRPRWYPRSYFDYWGRGTLVTVS
VL: DVQLTQSPSFLSASVGDRVTITCKASKSISNHLAWYQEKPGKANKLLIHSGSTLQSGTPSRFSGSGSGTEFTLTISSLQPEDFATYYCQQYDEYPYTFGQGTRLEIKR
For B2, the “IC50 (ng/ml), TcdB neutralisation” value (toxin B (VPI 10463) [2]) was 2 ng/mL.

B3: CA164_00995.g1 (antibody, V domains shown)
VH: EVQLVESGGGLVQPGGSLRLSCTASGFSLSNYDMIWVRQAPGKGLEYIGFINTGGITYYASWAKGRFTISRDSSTVYLQMNSLRAEDTATYFCARVDDYIGAWGAGLWGQGTLVTVS
VL: DVVMTQSPSTLSASVGDRVTITCQASQSINNYFSWYQQKPGKAPKLLIYGAANLASGVPSRFKGSGSGTEYTLTISSLQPDDFATYSCQNNYGVHIYGAAFGGGTKVEIK
notes: also called CA995; CA164_0995.g1
For B3, the Kd (TcdA CROPS456 (TcdA456)) was 0.119 nM, the koff (TcdA CROPS456 (TcdA456)) was 3.42e-05 s⁻¹ and the kon (TcdA CROPS456 (TcdA456)) was 287000 M⁻¹ s⁻¹. For the same binder, the “EC50 (ng/ml), TcdA neutralisation on Caco-2 cells, TcdA at LD80” value [5] was 37.6 ng/mL and the “Valency of binding, TcdA, est.” value (TcdA from ribotype 027) was 1.

B4: CA164_1151.g4 (antibody, V domains shown)
VH: EVQLQESGPGLVKPSETLSLTCTVSGFSLTSYYVHWVRQPPGKGLEWMGCIRTGGNTEYQSEFKSRVTISRDTSKNQVSLKLSSVTAADTAVYYCARGNYGFAYWGQGTLVTVS
VL: AIQMTQSPSSLSASVGDRVTITCKASQNVGNNVAWYQHKPGKAPKLLIYYASNRFTGVPSRFTGGGYGTDFTLTISSLQPEDFATYYCQRVYQSTWTFGQGTKVEIK
notes: also called CA1151; CA1151.g4
For B4, the “IC50 (ng/ml), TcdB neutralisation” value (toxin B (VPI 10463) [2]) was 182 ng/mL, the “Maximum neutralisation, TcdB LD75” value (toxin B (VPI 10463) [3]) was 45% and the “Maximum neutralisation, TcdB LD86” value (toxin B (VPI 10463) [3]) was 25%. The “Maximum neutralisation, TcdB LD90” value (toxin B (VPI 10463) [3]) was 20% and the “Binding Response (RU)” value (TcdB binding (TcdB1234) [6]) was 1230 RU.

B5: CA164_00997.g1 (antibody, V domains shown)
VH: EVQLVESGGGLVQPGGSLRLSCTVSGIDLSSHHMCWVRQAPGKGLEYIGVIYHFGSTYYANWATGRFTISKDSTTVYLQMNSLRAEDTATYFCARASIAGYSAFDPWGQGTLVTVS
VL: ALVMTQSPSSFSASTGDRVTITCQASQSISSYLSWYQQKPGKAPKLLIYRASTLASGVPSRFSGSGSGTEYTLTISCLQSEDFATYYCLGVYGYSNDDGIAFGGGTKVEIK
B5 was tested, and the “EC50 values (ng/ml) - TcdA ribotype 078, LD80” value (“EC50 values (ng/ml) … LD80” below) (TcdA ribotype 078) was 0.33 ng/mL, the “EC50 values (ng/ml) - TcdA ribotype 078, LD90” value (TcdA ribotype 078) was 0.64 ng/mL and the “EC50 values (ng/ml) - TcdA ribotype 078, LD95” value (TcdA ribotype 078) was 1.11 ng/mL. For the same binder, the “EC50 values (ng/ml) - TcdA ribotype 078, LDmax” value (“EC50 values (ng/ml) … LDmax” below) (TcdA ribotype 078) was 2.57 ng/mL.

B6: CA164_00922.g1 (antibody, V domains shown)
VH: EVQLVESGGGLVQPGGSLRLSCAASGFTISSYYMSWVRQAPGKGLEWIGIISSGGHFTWYANWAKGRFTISSDSTTVYLQMNSLRDEDTATYFCARAYVSGSSFNGYALWGQGTLVTVS
VL: DPVMTQSPSTLSASVGDRVTITCQASQSISNALAWYQQKPGKAPKLLIYSASSLASGVPSRFKGSGSGTEFTLTISSLQPDDFATYYCQYTHYSHTSKNPFGGGTKVEIK
For B6, the “EC50 values (ng/ml) … LD80” value (TcdA ribotype 078) was 0.11 ng/mL and the “EC50 values (ng/ml) … LDmax” value (TcdA ribotype 078) was 0.68 ng/mL.

B7: CA164_01000.g1 (antibody, V domains shown)
VH: EVQLVESGGGLIQPGGSLRLSCTVSGIDLSSDAVGWVRQAPGKGLEYIGIIATFDSTYYASWAKGRFTISKASSTTVYLQMNSLRAEDTATYFCARTGSWYYISGWGSYYYGMDLWGQGTLVTVS
VL: EIVMTQSPSTLSASVGDRVTITCQASQSIYSYLAWYQQKPGKAPKLLIYDASTLASGVPSRFKGSGSGTEFTLTISSLQPDDFATYYCQGNAYTSNSHDNAFGGGTKVEIK
In the case of B7, the “EC50 values (ng/ml) … LD80” value (TcdA ribotype 078) is reported as 2.04 ng/mL, the “EC50 values (ng/ml) - TcdA ribotype 078, LD90” value (TcdA ribotype 078) is reported as 2.41 ng/mL and the “EC50 values (ng/ml) - TcdA ribotype 078, LD95” value (TcdA ribotype 078) is reported as 5.03 ng/mL. For the same binder, the “EC50 values (ng/ml) … LDmax” value (TcdA ribotype 078) was 14.2 ng/mL.
